Results reported in the supplement of paper PMC6757056.
± gives the standard deviation of the averaged measurements.

B1: library; a variant is named by its letters at N, in order (parent)
chain: GCUGUCACCGGUGCUUGGUACGUUAUAUUCAGCCGGUCUGAUGAGUCUNNNNNNAGACGAAACAGC

Key:
(6R,S)-folinic acid [1] = variants of: B1; assay: normalized RNA/DNA level without ligand (relative to sTRSVctl = 100) (log10 (% of sTRSVctl)); HEK293T overexpressing SLC46A1; higher = less ribozyme self-cleavage, higher mRNA level; conditions: without (6R,S)-folinic acid; ligand present: no
Procedure, shortened: (§1)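 Ribozyme switch library plasmids with mCherry reporters (eGFP in certain ligand experiments) went into HEK293T cells at 4 µg per 6-well well. Where ligand was used, it was applied 1 h before transfection, and total RNA was extracted with EDTA 72 h later for reverse transcription, amplification, barcoding and sequencing. RNA level is the RNA-to-DNA read ratio normalized to a spiked-in non-cleaving sequence or to the leading sequences, then scaled and log-transformed. Scaling was ×100 with log10, the leading set comprised 25 sequences, and the cutoff was ≥100 DNA reads.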

(6R,S)-folinic acid [2] = variants of: B1; assay: normalized RNA/DNA level with ligand (relative to sTRSVctl = 100) (log10 (% of sTRSVctl)); HEK293T overexpressing SLC46A1; ligand concentration (+) RNA-Seq: 6 mM; higher = less ribozyme self-cleavage, higher mRNA level; conditions: with (6R,S)-folinic acid; ligand present: yes
Procedure, shortened: as §1

Variant	normalized RNA/DNA level without ligand (log10) ((6R,S)-folinic acid [1])	normalized RNA/DNA level with ligand (log10) ((6R,S)-folinic acid [2])
CGGGGA	2.104 ± 0.0034	2.11 ± 0.065
GGGGGA	2.057 ± 0.02	2.05 ± 0.043
UGGGGA	1.836 ± 0.0073	1.99 ± 0.036
AGGGGA	2.001 ± 0.0065	2.04 ± 0.058
CGGGGC	2.03 ± 0.023	2.003 ± 0.014
GGGGGC	1.94 ± 0.038	2.03 ± 0.022
UGGGGC	2.024 ± 0.01	2.02 ± 0.023
AGGGGC	2.047 ± 0.0056	2.04 ± 0.053
CGGGGG	1.91 ± 0.034	2.05 ± 0.064
GGGGGG	2.045 ± 0.019	2.04 ± 0.061
UGGGGG	1.8 ± 0.017	2.008 ± 0.018
AGGGGG	1.9815 ± 0.00032	2.05 ± 0.064
CGGGGU	2.039 ± 0.015	2.07 ± 0.024
GGGGGU	2.037 ± 0.0098	2.05 ± 0.052
UGGGGU	1.94 ± 0.026	2.0251 ± 0.00068
AGGGGU	1.98 ± 0.025	2.02 ± 0.039
GGGGUA	1.988 ± 0.0044	1.99 ± 0.028
UGGGUA	1.892 ± 0.0053	1.98 ± 0.053
AGGGUA	1.968 ± 0.019	2.02 ± 0.0085
CGGGUC	2.078 ± 0.0029	2.06 ± 0.038

Variant	normalized RNA/DNA level without ligand (log10) ((6R,S)-folinic acid [1])	normalized RNA/DNA level with ligand (log10) ((6R,S)-folinic acid [2])
GGGGUC	2.023 ± 0.0058	2.04 ± 0.048
UGGGUC	2.11 ± 0.022	2.06 ± 0.034
AGGGUC	2.051 ± 0.0057	2.03 ± 0.063
CGGGUG	1.976 ± 0.0081	2.01 ± 0.047
GGGGUG	1.997 ± 0.011	2.061 ± 0.019
AGGGUG	1.952 ± 0.0024	2.04 ± 0.028
CGGGUU	2 ± 0.024	2 ± 0.051
GGGGUU	2.014 ± 0.0056	2.02 ± 0.034
UGGGUU	1.9881 ± 0.0019	2.018 ± 0.016
AGGGUU	2.021 ± 0.0045	2.01 ± 0.035
AGGUAA	1.95 ± 0.024	1.98 ± 0.02
CGGUAC	2.0071 ± 0.0016	1.992 ± 0.0076
AGGUAC	1.982 ± 0.0027	1.995 ± 0.0077
CGGUAG	1.93 ± 0.025	1.963 ± 0.018
AGGUAG	1.912 ± 0.0057	2 ± 0.077
CGGUAU	1.976 ± 0.0076	2.003 ± 0.013
AGGUAU	2.009 ± 0.0096	2.04 ± 0.052
CGGUCA	2.005 ± 0.014	1.98 ± 0.064
GGGUCA	2.078 ± 0.0065	2.09 ± 0.053
UGGUCA	1.9757 ± 0.0013	2.04 ± 0.062

Variant	normalized RNA/DNA level without ligand (log10) ((6R,S)-folinic acid [1])	normalized RNA/DNA level with ligand (log10) ((6R,S)-folinic acid [2])
AGGUCA	1.967 ± 0.014	2.01 ± 0.047
CGGUCC	2.066 ± 0.013	2.03 ± 0.033
GGGUCC	2.05 ± 0.022	2.06 ± 0.04
UGGUCC	2.039 ± 0.0085	2.035 ± 0.016
CGGUCG	2.042 ± 0.0075	2.04 ± 0.021
UGGUCG	1.844 ± 0.015	1.99 ± 0.021
AGGUCG	1.985 ± 0.013	2.05 ± 0.043
CGGUCU	2.1 ± 0.035	2.05 ± 0.049
GGGUCU	2.064 ± 0.0032	2.06 ± 0.018
UGGUCU	1.994 ± 0.015	2.0325 ± 0.0019
AGGUCU	2.043 ± 0.0045	2 ± 0.021
CGGUGA	2.029 ± 0.014	2.04 ± 0.043
CGGUGC	2.053 ± 0.0063	2.007 ± 0.0042
UGGUGC	2.02 ± 0.03	2.02 ± 0.044
AGGUGC	2.0042 ± 0.0006	2.01 ± 0.044
CGGUGG	1.93 ± 0.024	1.99 ± 0.026
GGGUGG	2.056 ± 0.0092	2.04 ± 0.043
GGGUGU	2.025 ± 0.011	2.06 ± 0.049
